The text below walks through data of patent publication US11697680B2, “Anti-GP73 antibodies and immunoconjugates” (CUREAB GMBH, priority 2016, dated 2023).

“Also recorded” adds a separate entry of the source.

One experiment deals with HuH7 cells. The experiment in a line: Internalization of pHrodo Green labeled antibodies after pre-incubation with conditioned media containing soluble GP73. Particulars: 10 ug/ml pHrodo Green labeled antibody pre-incubated over night, 24 h at 37° C. The class given is cell-based, human. Here is the method:
Antibody internalization was measured by FACS using the pH-sensitive dye pHrodo Green coupled to each antibody. […] The internalization of G2-2 that binds to rGP73 is not altered as described in Example 6.
Labeled antibodies were purified by size exclusion (40K MWCO). A non binding Isotype Antibody that was not labeled with pHrodo® Green STP Ester (Iso.) was used as control for background fluorescence. 10 ug/ml of each antibody was pre-incubated over night at 4° C. with either fresh culture media or conditioned media. As conditioned media served either supernatant from HEK 293 or HEK 293 GP73-myc cells cultured for 72 hours, that was dialyzed (10 k MWCO) against 1 L fresh media each. To confirm the presence of secreted soluble GP73 after dialysis supernatants were analysed by Western Blot using an anti-myc antibody. 300 ul/well of each pre-incubated antibody was given to 0.6×10^6HuH7 cells growing in 24 well plates for 24 h at 37° C. and 5% CO2. Cells were washed and analysed by FACS.

Another experiment deals with T1, GP73 peptide: […] (Homo sapiens, UniProt Q8NBJ4).
T1 construct: GP73 peptide: […]
The experiment in a line: Biacore surface plasmon resonance, data fit for 1:1 binding. Particulars: Biacore 1:1 binding fit, GP73 peptide SSRSVDLQTRIMELEGRVRR
Here is the method:
In one embodiment, Kd is measured using surface plasmon resonance assays using a BIACORE®-2000 or a BIACORE®-3000 (BIAcore, Inc., Piscataway, N.J.) at 25° C. with immobilized antigen CM5 chips at […] response units (RU). Briefly, carboxymethylated dextran biosensor chips (CM5, BIACORE, Inc.) are activated with N-ethyl-N′-(3-dimethylaminopropyl) carbodiimide hydrochloride (EDC) and N-hydroxysuccinimide (NHS) according to the supplier's instructions. Antigen is diluted with 10 mM sodium acetate, pH 4.8, to 5 μg/ml (−0.2 μM) before injection at a flow rate of 5 μl/minute to achieve approximately 10 response units (RU) of coupled protein. Following the injection of antigen, 1 M ethanolamine is injected to block unreacted groups. For kinetics measurements, two-fold serial dilutions of antibody (0.58 nM to 200 nM) are injected in PBS with 0.05% polysorbate 20 (TWEEN-20™) surfactant (PEST) at 25° C. at a flow rate of approximately 25 μl/min. Association rates (kon) and dissociation rates (koff) are calculated using a simple one-to-one Langmuir binding model (BIACORE® T100 Evaluation Software) by simultaneously fitting the association and dissociation sensorgrams. The equilibrium dissociation constant (Kd) is calculated as the ratio koff/kon. See, e.g., Chen et al., J. Mol. Biol. 293:865-881 (1999). If the on-rate exceeds […] s^−1 by the surface plasmon resonance assay above, then the on-rate can be determined by using a fluorescent quenching technique that measures the increase or decrease in fluorescence emission intensity (excitation=295 nm; emission=340 nm, 16 nm band-pass) at 25° C. of a 20 nM anti-antigen antibody in PBS, pH 7.2, in the presence of increasing concentrations of antigen as measured in a spectrometer, such as a stop-flow equipped spectrophometer (Aviv Instruments) or a 8000-series SLM-AMINCO™ spectrophotometer (ThermoSpectronic) with a stirred cuvette.

In a further experiment the target is peptide AA 36-55 of GP73 (Homo sapiens, UniProt Q8NBJ4). Description: pH dependent peptide ELISA. Format: binding. The settings on record: pH range of 7.4 to 5.4. On the procedure:
A peptide ELISA was performed to test for pH dependency of binding to peptide AA 36-55 of GP73.
ELISA was carried out in 96 well plates coated overnight with biotinylated peptide and blocked with 2% gelatine. Horse radish peroxidase labeled antibodies G2-1 (G2-1-HRP) or G2-2 (G2-2-HRP) were applied and incubated for 1.5 hours. For competition testing non labeled G2-1 or G2-2 was added at high concentration. For pH dependent binding the antibodies were applied in phosphate buffer pH 4.4, 5.4, 6.4 or 7.4. After extensive washing a chromogenic substrate (TMB Amersham) was added to detect peroxidase. The reaction was stopped and absorbance was read at 450 nm.

B1: G2-2: scFv clone with human IgG1 heavy and human Igk light constant regions; VH/VL SEQ ID NO: 2 and 3; binds rGP73 AA 36-55 (antibody, V domains shown)
VH: EVQLLQSGGGVVQPGRSLRLSCAASGFTFSSYGMSWVRQAPGKGLEWVAVISYDGSNKYYADSVKGRFTISRDNSKNTLYLQMNSLRAEDTAVYYCAREGSAGMDVWGQGTTVTVSS
VL: DIQMTQPSSLSASPGASASLTCTLRSDISVGFHRIYWYQQKPGSPPQYLLRYKSDSDKQQGSGVPSRFSGSKDASANAGILLISGLQSDDEADYYCVIWHTSGVVFGGGTKVEIK
modifications: human IgG1 and Igk constant regions not cited; G2-2 heavy chain variable region (VH); G2-2 light chain variable region (VL)
On to B1, for which the “effect of conditioned media containing soluble GP73 on antibody internalization / cell surface binding” value in the experiment on HuH7 cells is reported as “unaffected; also recorded: not altered”. In addition, in the experiment with GP73 peptide: […], the “koff, measurement 1 + 2 mean” value came to 0.001108 s⁻¹ and the “kon, measurement 1 + 2 mean” value amounted to 260200 M⁻¹ s⁻¹. For the same molecule, the Kd (in general, the equilibrium constant for the complex coming apart) in the experiment with GP73 peptide: […] (read-out: Kd, measurement 1 + 2 mean) came out at 4.29 nM. Moreover, the “pH dependency of binding to peptide AA 36-55 of GP73” value with peptide AA 36-55 of GP73 is listed as “Stable binding”.
